The record followed here is the DeepSol protein solubility set.

A short description of this data set: soluble on expression in E. coli; label from the status in PepcDB or PDB records.
“MPTLPRAANSRWRSLKIGLAPDLGLDDNGSLLLDFGPRQFTVSFDETLKPFVRDVSGSRLKDLPKPNKSDDETRANDAVNRYKLLKKDARTIAAQQVARLESAMCLRRRWSLENFQLFLVEHPLVRHLTRRLIWGVYSAENQLLACFRVAEDNSSSTADDDLFTLPEGDISIGTPHVLEISPTDAAAFGQLFADYELLPPFRQLDRNSYALTEAERNASELTRWAGRKCPSGRVMGLANKGWIKGEPQDGGWIGWMIKPLGRWSLIMEIDEGFAVGMSPAELSAEQLLSKLWLWEGKAERYGWGSNSTQEAQFSVIDAITASELINDIEALFE”: the “soluble on expression in E. coli” value was “not soluble”. For the sequence “MSEVYRLTCIVCPLSCSIEVEIEAGKIKDIKGYTCPRGKEWAIEEIRAPKRVVMSVIPVEGGKLPTVSVKTEKPIPKDKIPELMKMLAKLKLKAPVKVGQVVGEFEGVKIIATREALEHHHHHH”, the “soluble on expression in E. coli” value is given as “not soluble”.

As to “MGSDKIHHHHHHMTFNVPDVKPLINDEFAGEAPKRALSYIANKRSAGMPVAGTYCGYAPMEVIRAVGAVPAVLCAFANKTIPAAEAVLPANLCPLIKSSYGFILTDTCPFFALSDAVVAETTCDGKKKMFELIFSHRPMFVMDLPQLPDEVEARANWATMISKLKGFLENTFGTFGTSEGIEAEIQATNIKNRLMRRVFGYAEKKPPLLSWSELYELCFLAQVATTEDLLPVFKEVFERLEEREAKGIYYGAPSSPRVLVTGCPVGGDSTKVFRIIEEAGGVVVAMDSCSGMKPFIADIEEKTGNPIDSVARHYLEIPCSCMTPNTRRLTELDKALAAFQPDAVVEVVLHACHSYNIEAIKIMNYLKEKHNLPYLKIVTDYSEGDVEQIRTRVEALLESI”, the “soluble on expression in E. coli” value is given as “not soluble”. The result for “MAPILSHSIPIPSSMQANWQQMLNLLAEVLKVSATLIMRLRHHDLDVFCTSVGSDNPYQVGMTERLGTGLYCETVVNTRQILLVSNADLDPLWKDNPDLELGMRAYCGVPLQWPNGELFGSLCVTDRQARQFLSTDQQLIKTFAESIEAQLKTLYQRETLLQMNQ” reads “not soluble”.

Take “MGSDKIHHHHHHMAYPPTGGDRKTNLTTILRKSSKNLMSKKSDSQFQNLFTSAKSSNWDERLGQIAYRFNREYQRETFELPTEVQAMPIFREWIGGSFSGRIASPFWEIAQPQKNQHCLDIGCGISFLIYPWRDWQAFFHGQEISNVARDTLNSRGPQLNSKLFKGVELGAAHQLNYSPEQFDLAIATGFSCYFPLEYWNAVLAEVKRVLKPGGHFVFDILNPEQPLAEDWAVLETYLGAEVFLEPVAGWEKAIKAAGAKIVTQKSGELFQMYKVRF”: the “soluble on expression in E. coli” value was “not soluble”. For “MDHLPIFCQLRDRDCLIVGGGDVAERKARLLLEAGARLTVNALTFIPQFTVWANEGMLTLVEGPFDETLLDSCWLAIAATDDDTVNQRVSDAAESRRIFCNVVDAPKAASFIMPSIIDRSPLMVAVSSGGTSPVLARLLREKLESLLPQHLGQVARYAGQLRARVKKQFATMGERRRFWEKFFVNDRLAQSLANADEKAVNATTERLFSEPLDHRGEVVLVGAGPGDAGLLTLKGLQQIQQADIVVYDRLVSDDIMNLVRRDADRVFVGKRAGYHCVPQEEINQILLREAQKGKRVVRLKGGDPFIFGRGGEELETLCHAGIPFSVVPGITAASGCSAYSGIPLTHRDYAQSVRLVTGHLKTGGELDWENLAAEKQTLVFYMGLNQAATIQEKLIAFGMQADMPVALVENGTSVKQRVVHGVLTQLGELAQQVESPALIIVGRVVALRDKLNWFSNH” the value was “soluble”. Turning to “TLLHPLLMRNGDSRPLHKPTTPLPSLDLLTPPPSEVEPVDTFALEQMARLVEARLADFRIKADVVNYSPGPVITRFELNLAPGVKAARISNLSRDLARSLSTVAVRVVEVIPGKPYVGLELPNKKRQTVYLREVLDNAKFRDNPSPLTVVLGKDIAGEPVVADLAKMPHLLVAGTTGSGASVGVNAMILSMLYKAQPEDVRFIMIDPKMLELSVYEGIPHLLTEVVTDMKDAANALRWCVNEMERRYKLMSALGVRNLAGYNEKIAEADRMMRPIPDPYWKPGDSMDAQHPVLKKEPYIVVLVDEFADLMMTVGKKVEELIARLAQKARAAGIHLVLATQRPSVDVITGLIKANIPTRIAFTVSSKIDSRTILDQAGAESLLGMGDMLYSGPNSTLPVRVHGAFVRDQEVHAVVQDWKARGRPQYVDGITSDSESEGGAGGFDGAEELDPLFDQAVQFVTEKRKASISGVQRQFRIGYNRAARIIEQMEAQGIVSEQGHNGNREVLAPPPFD”, the “soluble on expression in E. coli” value is recorded as “soluble”.
